{"source": "the RNAGym collection of RNA variant scans (doi:10.1073/pnas.2313332121)", "parents": {"B1": {"name": "TPR 5TU (parent)", "chain": "GGAUCUUCUCGAUCUAACAAAAAAGACAAAUCUGCCACAAAGCUUGAGAGCAUCUUCGGAUGCAGAGGCGGCAGCCUUCGGUGGCGCGAUAGCGCCAACGUUCUCAACUAUGACACGCAAAACGCGUGCUCCGUUGAAUGGAGUUUAUCAUG"}}, "note": "Fewer inactive variants are shown than the library holds.", "data": [{"variants_of": "B1", "test": "polymerase ribozyme fitness, log enrichment relative to wild type (log ratio); higher = more active; in vitro selection for triplet polymerase activity", "procedure,_shortened": "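Each subunit of a heterodimeric triplet polymerase ribozyme was represented by a PCR-built, transcribed mutant library that underwent triplicate single-round in vitro selection with frozen incubation at −7 °C. Extended constructs were recovered by gel excision, streptavidin-bead capture and RT-PCR, and Illumina sequencing of input and output libraries kept genotypes with ≥10 input reads and ≥1 read per output. Fitness is the logarithm of genotype enrichment relative to wild-type enrichment, from inverse-variance-weighted replicate averages, with a logarithm base of 2.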", "values": [{"variant": "G50U U56A G83A", "polymerase ribozyme fitness (log ratio)": -0.268}, {"variant": "G50U C69U C99U", "polymerase ribozyme fitness (log ratio)": -3.41}, {"variant": "G50U C93U", "polymerase ribozyme fitness (log ratio)": -2.05}, {"variant": "G50U C79G A98U C99G", "polymerase ribozyme fitness (log ratio)": "≤ -4.2"}, {"variant": "C51A C54U A91U G100U G124A U135C", "polymerase ribozyme fitness (log ratio)": "≤ -4.2"}, {"variant": "C51A A52G", "polymerase ribozyme fitness (log ratio)": -0.455}, {"variant": "G50U G86U", "polymerase ribozyme fitness (log ratio)": -1.71}, {"variant": "G50U G86A", "polymerase ribozyme fitness (log ratio)": -2.57}, {"variant": "G50C C95U", "polymerase ribozyme fitness (log ratio)": -3.47}, {"variant": "G50U U56A C114U", "polymerase ribozyme fitness (log ratio)": -2.18}, {"variant": "G50C G58A C125A", "polymerase ribozyme fitness (log ratio)": -3.17}, {"variant": "G50C G94A C129U U135G", "polymerase ribozyme fitness (log ratio)": "≤ -4.2"}, {"variant": "G50C U101G", "polymerase ribozyme fitness (log ratio)": -2.64}, {"variant": "G50C G141U", "polymerase ribozyme fitness (log ratio)": -2.26}, {"variant": "G50C G59A U145C", "polymerase ribozyme fitness (log ratio)": -3.51}, {"variant": "G50C C93G C99U", "polymerase ribozyme fitness (log ratio)": "≤ -4.2"}, {"variant": "G50U G83U C85G", "polymerase ribozyme fitness (log ratio)": -4.13}, {"variant": "G50U G67U C85G C103U G140A A147G", "polymerase ribozyme fitness (log ratio)": "≤ -4.2"}, {"variant": "G50U C63U C85A A110G", "polymerase ribozyme fitness (log ratio)": -4.19}, {"variant": "G50U C95U C118A G140A", "polymerase ribozyme fitness (log ratio)": "≤ -4.2"}, {"variant": "C51A A137C", "polymerase ribozyme fitness (log ratio)": "≤ -4.2"}, {"variant": "C51A A60G C95G U146C U151G", "polymerase ribozyme fitness (log ratio)": "≤ -4.2"}, {"variant": "G50C C87U C103G A121G C123U C125G", "polymerase ribozyme fitness (log ratio)": "≤ -4.2"}, {"variant": "G50U U144G U145A", "polymerase ribozyme fitness (log ratio)": 0.245}, {"variant": "G50U U78C U139G", "polymerase ribozyme fitness (log ratio)": -3.06}, {"variant": "G50U C87U G152U", "polymerase ribozyme fitness (log ratio)": -4.17}, {"variant": "G50U C95A U109C", "polymerase ribozyme fitness (log ratio)": "≤ -4.2"}, {"variant": "G50U U102A A142U", "polymerase ribozyme fitness (log ratio)": -2.57}, {"variant": "G50U G94A A113G A147C", "polymerase ribozyme fitness (log ratio)": -3.89}, {"variant": "G50U C87U C96A", "polymerase ribozyme fitness (log ratio)": -1.48}, {"variant": "G50U G81A U102G", "polymerase ribozyme fitness (log ratio)": -2.74}, {"variant": "G50C U102G", "polymerase ribozyme fitness (log ratio)": -3.32}, {"variant": "G50U G126A G141C", "polymerase ribozyme fitness (log ratio)": -4.02}, {"variant": "G50U G70A G136U", "polymerase ribozyme fitness (log ratio)": "≤ -4.2"}, {"variant": "G50U G86C A120C", "polymerase ribozyme fitness (log ratio)": -3.03}, {"variant": "G50U C99A", "polymerase ribozyme fitness (log ratio)": -1.59}, {"variant": "G50U C57U G92C", "polymerase ribozyme fitness (log ratio)": -0.983}, {"variant": "G50U C57U G84U C103U", "polymerase ribozyme fitness (log ratio)": -2.21}, {"variant": "C51A A73U C99U C103A U104A G126C U139A", "polymerase ribozyme fitness (log ratio)": "≤ -4.2"}, {"variant": "G50U G84A A91U C116A", "polymerase ribozyme fitness (log ratio)": "≤ -4.2"}, {"variant": "G50C G81A G86U C87A G136U", "polymerase ribozyme fitness (log ratio)": "≤ -4.2"}, {"variant": "G50C C95G U101G A115U C118G A122C G126U", "polymerase ribozyme fitness (log ratio)": "≤ -4.2"}, {"variant": "C51A C85U A89G U146A", "polymerase ribozyme fitness (log ratio)": -3.11}, {"variant": "G50U A66U C69G U135C", "polymerase ribozyme fitness (log ratio)": "≤ -4.2"}, {"variant": "G50C C85U", "polymerase ribozyme fitness (log ratio)": -2.99}, {"variant": "G50C C96U U134A", "polymerase ribozyme fitness (log ratio)": "≤ -4.2"}, {"variant": "G50U C57U A73U G86U G126U", "polymerase ribozyme fitness (log ratio)": "≤ -4.2"}, {"variant": "G50C G58U", "polymerase ribozyme fitness (log ratio)": -1.88}, {"variant": "G50U U53G C69G G94A", "polymerase ribozyme fitness (log ratio)": "≤ -4.2"}, {"variant": "G50U A97U U102A G124A", "polymerase ribozyme fitness (log ratio)": -2.31}, {"variant": "G50U C51U G58U C108G C123G", "polymerase ribozyme fitness (log ratio)": "≤ -4.2"}, {"variant": "G50U C85A U144A U145C", "polymerase ribozyme fitness (log ratio)": -1.01}, {"variant": "G50C U56A U78A G83A G94U C95A", "polymerase ribozyme fitness (log ratio)": "≤ -4.2"}, {"variant": "G50U C96U C99A C103G G124C C129A U144G", "polymerase ribozyme fitness (log ratio)": "≤ -4.2"}, {"variant": "G50C G59C C95G", "polymerase ribozyme fitness (log ratio)": -3.67}, {"variant": "G50U U55G C75A A97G A137U U151A", "polymerase ribozyme fitness (log ratio)": "≤ -4.2"}, {"variant": "G50C G81C C93G C95U A110C", "polymerase ribozyme fitness (log ratio)": "≤ -4.2"}, {"variant": "G50U C54G A150U", "polymerase ribozyme fitness (log ratio)": -2.15}, {"variant": "G50C U134C", "polymerase ribozyme fitness (log ratio)": -2.51}, {"variant": "G50U U53A G58A A73G C79A C93A A107U C116G G136C", "polymerase ribozyme fitness (log ratio)": "≤ -4.2"}, {"variant": "G50C C93U", "polymerase ribozyme fitness (log ratio)": -4.15}, {"variant": "G50C C93A", "polymerase ribozyme fitness (log ratio)": "≤ -4.2"}, {"variant": "G50C G59A", "polymerase ribozyme fitness (log ratio)": -3.03}, {"variant": "G50U A73U C87U", "polymerase ribozyme fitness (log ratio)": -2.26}, {"variant": "G50U G94A U102C C103U", "polymerase ribozyme fitness (log ratio)": -3.63}, {"variant": "C51A C85A G141A", "polymerase ribozyme fitness (log ratio)": -1.93}, {"variant": "G50U U146C", "polymerase ribozyme fitness (log ratio)": 0.0837}, {"variant": "G50C U104G", "polymerase ribozyme fitness (log ratio)": "≤ -4.2"}, {"variant": "G50U U56A G94U A106G C116G C123U", "polymerase ribozyme fitness (log ratio)": -0.9}, {"variant": "G50C G117A", "polymerase ribozyme fitness (log ratio)": -2.37}, {"variant": "G50U A52C A64C G92C", "polymerase ribozyme fitness (log ratio)": "≤ -4.2"}, {"variant": "G50U A60U", "polymerase ribozyme fitness (log ratio)": -0.536}, {"variant": "G50U G58U G59U C76A", "polymerase ribozyme fitness (log ratio)": "≤ -4.2"}, {"variant": "G50U A97U A147U", "polymerase ribozyme fitness (log ratio)": 0.621}, {"variant": "G50U C95G", "polymerase ribozyme fitness (log ratio)": -0.905}, {"variant": "G50C C118A", "polymerase ribozyme fitness (log ratio)": -4.05}, {"variant": "G50C C118U", "polymerase ribozyme fitness (log ratio)": -3.01}, {"variant": "G50C C129U", "polymerase ribozyme fitness (log ratio)": -3.94}, {"variant": "G50C U104C C116A G143U", "polymerase ribozyme fitness (log ratio)": "≤ -4.2"}, {"variant": "G50U C87U A89G", "polymerase ribozyme fitness (log ratio)": -3.95}, {"variant": "G50U C85A", "polymerase ribozyme fitness (log ratio)": -1.4}, {"variant": "C51A C75U C95U A106C G128U", "polymerase ribozyme fitness (log ratio)": "≤ -4.2"}, {"variant": "G50U C87U G92A", "polymerase ribozyme fitness (log ratio)": 0.244}]}]}
